# Molecular target: extracellular region of human V158 FcγRIIIa with C-terminal 6×His-tag and GST-tag (human, UniProt P08637 17-208)
# Experiment: SPR
# extracellular region of human V158 FcγRIIIa with C-terminal 6×His-tag and GST-tag, sequence (P08637 17-208 F176V): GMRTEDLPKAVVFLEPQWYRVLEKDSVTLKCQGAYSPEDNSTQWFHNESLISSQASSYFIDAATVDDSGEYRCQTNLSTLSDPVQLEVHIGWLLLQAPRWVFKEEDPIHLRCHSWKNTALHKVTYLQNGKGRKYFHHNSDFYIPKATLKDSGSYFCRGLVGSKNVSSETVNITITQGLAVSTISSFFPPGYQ
row,Fold WT,Binder
1,6.69 fold,alemtuzumab G236S (antibody) chain 1: not shown chain 2: not shown
2,22.4 fold,alemtuzumab K246H (antibody) chain 1: not shown chain 2: not shown
3,7.07 fold,alemtuzumab K246Y (antibody) chain 1: not shown chain 2: not shown
4,1.41 fold,alemtuzumab R255Y (antibody) chain 1: not shown chain 2: not shown
5,5.5 fold,alemtuzumab E258H (antibody) chain 1: not shown chain 2: not shown
6,1.77 fold,alemtuzumab E258Y (antibody) chain 1: not shown chain 2: not shown
7,2.62 fold,alemtuzumab S267E (antibody) chain 1: not shown chain 2: not shown
8,5.66 fold,alemtuzumab H268D (antibody) chain 1: not shown chain 2: not shown
9,384 fold,alemtuzumab E272H (antibody) chain 1: not shown chain 2: not shown
10,1.41 fold,alemtuzumab E272P (antibody) chain 1: not shown chain 2: not shown
11,2.31 fold,alemtuzumab E283H (antibody) chain 1: not shown chain 2: not shown
12,2.56 fold,alemtuzumab E283L (antibody) chain 1: not shown chain 2: not shown
13,1.51 fold,alemtuzumab V284E (antibody) chain 1: not shown chain 2: not shown
14,12.8 fold,alemtuzumab S304T (antibody) chain 1: not shown chain 2: not shown
15,14.2 fold,alemtuzumab S324G (antibody) chain 1: not shown chain 2: not shown

# Reference: US20060121032A1 (published 2006)
